Reference: article PMC9482650, “Quantitative fragmentomics allow affinity mapping of interactomes” (Nature Communications, 2022)

Assays:
Assay in all cases: holdup assay
Set-up in all cases: key: below the threshold = too weak to quantify, mostly under pKd 3.1 to 4
Details in all cases: plain residues with an end cap or a label only (N-terminal biotin on a linker: ado-ado)
CARD11, Q9BXL7 = target: T1, CARD11, Q9BXL7
T1 sequence (Q9BXL7 662-765, limits assumed, looked up): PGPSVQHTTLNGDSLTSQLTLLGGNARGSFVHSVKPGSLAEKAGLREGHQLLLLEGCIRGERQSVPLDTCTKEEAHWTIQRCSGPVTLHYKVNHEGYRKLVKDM

DLG1_2, Q12959 = target: DLG1_2, Q12959
DLG4_2, P78352 = target: DLG4_2, P78352
DLG4_3, P78352 = target: DLG4_3, P78352
DVL3, Q92997 = target: T2, DVL3, Q92997
T2 sequence (Q92997 244-331, limits assumed, looked up): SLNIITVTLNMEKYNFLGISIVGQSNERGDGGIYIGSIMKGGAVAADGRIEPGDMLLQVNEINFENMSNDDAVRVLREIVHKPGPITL

FRMPD2_1, Q68DX3 = target: FRMPD2_1, Q68DX3
FRMPD2_3, Q68DX3 = target: FRMPD2_3, Q68DX3
GRID2IP_2, A4D2P6 = target: GRID2IP_2, A4D2P6
GRIP1_3, Q9Y3R0 = target: T3, GRIP1_3, Q9Y3R0
T3 sequence (Q9Y3R0 247-346, limits assumed, looked up): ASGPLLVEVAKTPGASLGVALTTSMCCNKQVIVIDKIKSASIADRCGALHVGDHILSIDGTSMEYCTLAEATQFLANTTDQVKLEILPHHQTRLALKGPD

GRIP1_4, Q9Y3R0 = target: T4, GRIP1_4, Q9Y3R0
T4 sequence (Q9Y3R0 467-571, limits assumed, looked up): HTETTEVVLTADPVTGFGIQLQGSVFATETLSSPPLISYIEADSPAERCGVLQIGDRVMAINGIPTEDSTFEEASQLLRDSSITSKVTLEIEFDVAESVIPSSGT

GRIP1_7, Q9Y3R0 = target: T5, GRIP1_7, Q9Y3R0
T5 sequence (Q9Y3R0 999-1096, limits assumed, looked up): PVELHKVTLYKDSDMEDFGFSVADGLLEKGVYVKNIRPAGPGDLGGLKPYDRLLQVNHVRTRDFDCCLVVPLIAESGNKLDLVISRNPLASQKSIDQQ

GRIP2_4, Q9C0E4 = target: GRIP2_4, Q9C0E4
GRIP2_7, Q9C0E4 = target: GRIP2_7, Q9C0E4
HTRA2, O43464 = target: HTRA2, O43464
IL16_1, Q14005 = target: IL16_1, Q14005
IL16_3, Q14005 = target: IL16_3, Q14005
Inadl_2, Q8NI35 = target: Inadl_2, Q8NI35
LIN7A, O14910 = target: T6, LIN7A, O14910
T6 sequence (O14910 103-200, limits assumed, looked up): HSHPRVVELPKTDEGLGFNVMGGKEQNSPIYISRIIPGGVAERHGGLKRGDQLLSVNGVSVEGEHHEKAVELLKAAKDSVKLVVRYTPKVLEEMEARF

MAGI1_2, Q96QZ7 = target: MAGI1_2, Q96QZ7
MAST1, Q9Y2H9 = target: MAST1, Q9Y2H9
MPP7, Q5T2T1 = target: T7, MPP7, Q5T2T1
T7 sequence (Q5T2T1 134-230, limits assumed, looked up): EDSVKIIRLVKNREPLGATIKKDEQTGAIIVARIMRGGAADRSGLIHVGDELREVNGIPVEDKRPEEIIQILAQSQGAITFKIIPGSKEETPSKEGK

NHERF4_1, Q86UT5-2 = target: NHERF4_1, Q86UT5-2
NHERF4_2, Q86UT5 = target: NHERF4_2, Q86UT5
NHERF4_4, Q86UT5 = target: NHERF4_4, Q86UT5
PDZD7_3, Q9H5P4 = target: T8, PDZD7_3, Q9H5P4
T8 sequence (Q9H5P4 857-944, limits assumed, looked up): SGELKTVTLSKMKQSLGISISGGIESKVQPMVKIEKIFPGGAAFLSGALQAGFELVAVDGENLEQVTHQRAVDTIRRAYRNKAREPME

SNTG2, Q9NY99 = target: T9, SNTG2, Q9NY99
T9 sequence (Q9NY99 68-166, limits assumed, looked up): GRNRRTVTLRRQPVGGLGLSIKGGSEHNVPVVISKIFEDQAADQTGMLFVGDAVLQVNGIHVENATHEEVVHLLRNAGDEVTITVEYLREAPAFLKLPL

SNX27, Q96L92 = target: SNX27, Q96L92
SYNJ2BP, P57105 = target: T10, SYNJ2BP, P57105
T10 sequence (P57105 8-110, limits assumed, looked up): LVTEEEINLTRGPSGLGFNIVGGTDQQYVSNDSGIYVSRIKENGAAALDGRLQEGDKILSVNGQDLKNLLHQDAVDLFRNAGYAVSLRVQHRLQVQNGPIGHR

MAGI1_2, Q96QZ7, sequence (Q96QZ7 456-580): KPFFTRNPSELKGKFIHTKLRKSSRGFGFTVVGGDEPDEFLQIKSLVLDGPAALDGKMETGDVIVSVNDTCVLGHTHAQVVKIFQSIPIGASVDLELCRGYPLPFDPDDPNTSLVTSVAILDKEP
FRMPD2_3, Q68DX3, sequence (Q68DX3 1073-1166): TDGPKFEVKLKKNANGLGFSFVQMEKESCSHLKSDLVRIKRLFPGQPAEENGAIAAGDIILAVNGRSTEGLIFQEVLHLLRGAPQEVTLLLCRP
GRID2IP_2, A4D2P6, sequence (A4D2P6 272-370): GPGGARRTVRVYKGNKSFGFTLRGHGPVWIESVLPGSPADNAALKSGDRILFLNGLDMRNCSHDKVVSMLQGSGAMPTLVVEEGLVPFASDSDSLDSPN
HTRA2, O43464, sequence (O43464 355-458): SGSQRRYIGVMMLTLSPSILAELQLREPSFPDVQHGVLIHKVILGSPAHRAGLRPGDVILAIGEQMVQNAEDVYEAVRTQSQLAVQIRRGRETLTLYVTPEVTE
NHERF4_4, Q86UT5, sequence (Q86UT5 464-550): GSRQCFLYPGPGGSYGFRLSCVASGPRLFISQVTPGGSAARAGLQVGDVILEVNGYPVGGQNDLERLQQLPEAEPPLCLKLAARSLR
MAST1, Q9Y2H9, sequence (Q9Y2H9 962-1065): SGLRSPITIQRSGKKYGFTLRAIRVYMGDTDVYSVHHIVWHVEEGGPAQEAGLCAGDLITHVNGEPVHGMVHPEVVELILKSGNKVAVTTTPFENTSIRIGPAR
DLG1_2, Q12959, sequence (Q12959 314-412): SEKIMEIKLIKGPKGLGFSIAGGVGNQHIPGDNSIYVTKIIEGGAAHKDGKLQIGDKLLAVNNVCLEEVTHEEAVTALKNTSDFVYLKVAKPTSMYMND
NHERF4_1, Q86UT5-2, sequence (Q86UT5 other isoform, or with tags, fused parts or gaps): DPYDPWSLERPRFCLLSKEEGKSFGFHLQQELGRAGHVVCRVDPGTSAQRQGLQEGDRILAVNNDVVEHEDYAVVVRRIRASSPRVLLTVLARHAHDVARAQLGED
DLG4_3, P78352, sequence (P78352 306-403): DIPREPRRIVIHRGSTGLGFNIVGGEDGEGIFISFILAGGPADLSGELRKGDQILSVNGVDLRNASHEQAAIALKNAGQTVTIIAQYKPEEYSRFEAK
Inadl_2, Q8NI35, sequence (Q8NI35 238-335): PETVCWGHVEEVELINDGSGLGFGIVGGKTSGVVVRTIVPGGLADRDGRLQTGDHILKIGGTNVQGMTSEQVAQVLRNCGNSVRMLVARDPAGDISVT
FRMPD2_1, Q68DX3, sequence (Q68DX3 770-861): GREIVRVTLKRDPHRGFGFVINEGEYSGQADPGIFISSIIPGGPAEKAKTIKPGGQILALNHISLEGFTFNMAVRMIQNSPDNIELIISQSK
IL16_3, Q14005, sequence (Q14005 1107-1207): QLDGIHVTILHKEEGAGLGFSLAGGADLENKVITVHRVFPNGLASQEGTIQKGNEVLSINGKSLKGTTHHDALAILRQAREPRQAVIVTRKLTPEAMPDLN
DLG4_2, P78352, sequence (P78352 155-259): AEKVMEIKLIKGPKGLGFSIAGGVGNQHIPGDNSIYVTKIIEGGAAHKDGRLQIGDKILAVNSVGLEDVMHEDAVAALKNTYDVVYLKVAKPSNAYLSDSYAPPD
GRIP2_7, Q9C0E4, sequence (Q9C0E4 934-1023): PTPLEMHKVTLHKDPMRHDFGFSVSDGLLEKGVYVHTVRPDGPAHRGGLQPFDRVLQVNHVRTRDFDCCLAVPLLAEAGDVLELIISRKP
IL16_1, Q14005, sequence (Q14005 210-306): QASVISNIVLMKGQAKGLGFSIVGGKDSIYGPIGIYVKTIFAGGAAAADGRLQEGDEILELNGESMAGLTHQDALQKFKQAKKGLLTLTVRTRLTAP
GRIP2_4, Q9C0E4, sequence (Q9C0E4 446-548): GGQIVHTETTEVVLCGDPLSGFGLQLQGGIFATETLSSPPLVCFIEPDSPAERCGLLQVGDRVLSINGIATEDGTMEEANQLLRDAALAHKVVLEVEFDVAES
NHERF4_2, Q86UT5, sequence (Q86UT5 220-308): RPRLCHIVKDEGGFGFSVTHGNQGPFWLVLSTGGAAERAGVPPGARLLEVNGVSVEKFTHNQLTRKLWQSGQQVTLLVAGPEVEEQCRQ

Binder | pKd (CARD11, Q9BXL7) | pKd (DLG1_2, Q12959) | pKd (DLG4_2, P78352) | pKd (DLG4_3, P78352) | pKd (DVL3, Q92997) | pKd (FRMPD2_1, Q68DX3) | pKd (FRMPD2_3, Q68DX3) | pKd (GRID2IP_2, A4D2P6) | pKd (GRIP1_3, Q9Y3R0) | pKd (GRIP1_4, Q9Y3R0) | pKd (GRIP1_7, Q9Y3R0) | pKd (GRIP2_4, Q9C0E4) | pKd (GRIP2_7, Q9C0E4) | pKd (HTRA2, O43464) | pKd (IL16_1, Q14005) | pKd (IL16_3, Q14005) | pKd (Inadl_2, Q8NI35) | pKd (LIN7A, O14910) | pKd (MAGI1_2, Q96QZ7) | pKd (MAST1, Q9Y2H9) | other results
RQKEVRESKC [SCN8A, Q9UQD0] | below the threshold | 3.55 | 3.52 | 4.6 | below the threshold | below the threshold | below the threshold | 3.69 | below the threshold | below the threshold | below the threshold | below the threshold | below the threshold | below the threshold | 3.7 | below the threshold | below the threshold | below the threshold | 3.67 | 4.34 | pKd (MPP7, Q5T2T1): below the threshold; pKd (NHERF4_1, Q86UT5-2): 3.91; pKd (NHERF4_2, Q86UT5): below the threshold; pKd (NHERF4_4, Q86UT5): below the threshold; pKd (PDZD7_3, Q9H5P4): 3.85; pKd (SNTG2, Q9NY99): 4.58; pKd (SNX27, Q96L92): 5.19; pKd (SYNJ2BP, P57105): 4.23
NIAESLESLV [PTPRZ1, P23471] | below the threshold | 5.31 | 5.09 | below the threshold | below the threshold | below the threshold | below the threshold | below the threshold | below the threshold | below the threshold | below the threshold | below the threshold | below the threshold | below the threshold | 4.6 | below the threshold | below the threshold | 4.04 | 3.81 | below the threshold | pKd (MPP7, Q5T2T1): below the threshold; pKd (NHERF4_1, Q86UT5-2): 3.7; pKd (NHERF4_2, Q86UT5): below the threshold; pKd (NHERF4_4, Q86UT5): below the threshold; pKd (PDZD7_3, Q9H5P4): 4.7; pKd (SNTG2, Q9NY99): 4.34; pKd (SNX27, Q96L92): 5.09; pKd (SYNJ2BP, P57105): 4.83
MQHQRTHTRV [ZSCAN30, Q86W11] | below the threshold | 5.12 | 4.95 | 4.22 | below the threshold | 3.88 | 3.5 | 3.77 | below the threshold | below the threshold | below the threshold | below the threshold | below the threshold | below the threshold | below the threshold | below the threshold | below the threshold | below the threshold | 4.87 | 3.54 | pKd (MPP7, Q5T2T1): below the threshold; pKd (NHERF4_1, Q86UT5-2): below the threshold; pKd (NHERF4_2, Q86UT5): below the threshold; pKd (NHERF4_4, Q86UT5): below the threshold; pKd (PDZD7_3, Q9H5P4): 4.37; pKd (SNTG2, Q9NY99): 3.86; pKd (SNX27, Q96L92): 4.38; pKd (SYNJ2BP, P57105): 4.28
VKRNSKETVV [MARCHF3, Q86UD3] | below the threshold | 6.11 | 6.03 | 4.94 | below the threshold | 3.8 | below the threshold | below the threshold | below the threshold | below the threshold | below the threshold | below the threshold | below the threshold | below the threshold | 3.94 | below the threshold | below the threshold | below the threshold | 4.6 | below the threshold | pKd (MPP7, Q5T2T1): below the threshold; pKd (NHERF4_1, Q86UT5-2): below the threshold; pKd (NHERF4_2, Q86UT5): below the threshold; pKd (NHERF4_4, Q86UT5): below the threshold; pKd (PDZD7_3, Q9H5P4): 4.82; pKd (SNTG2, Q9NY99): 4.54; pKd (SNX27, Q96L92): 5.28; pKd (SYNJ2BP, P57105): 4.76
EDGESWEYQI [TRPV6, Q9H1D0] | below the threshold | below the threshold | below the threshold | below the threshold | below the threshold | below the threshold | below the threshold | below the threshold | below the threshold | below the threshold | below the threshold | below the threshold | 3.61 | below the threshold | below the threshold | below the threshold | 3.97 | below the threshold | below the threshold | 4.28 | pKd (MPP7, Q5T2T1): 5.06; pKd (NHERF4_1, Q86UT5-2): below the threshold; pKd (NHERF4_2, Q86UT5): below the threshold; pKd (NHERF4_4, Q86UT5): 3.94; pKd (PDZD7_3, Q9H5P4): below the threshold; pKd (SNTG2, Q9NY99): below the threshold; pKd (SNX27, Q96L92): below the threshold; pKd (SYNJ2BP, P57105): below the threshold
